Test results reported in article PMC8666670, “Malonyl-acyl carrier protein decarboxylase activity promotes fatty acid and cell envelope biosynthesis in Proteobacteria” (The Journal of Biological Chemistry, 2021).
Each block holds one substance with its values, some of them ahead of it.

Legend:
[1] = molecular target: MadB(H47A) (S. oneidensis); experiment: not stated; dimeric structures of the MadB catalytic loop mutants, data in Table S3
[2] = molecular target: MadB(T49A) (S. oneidensis); experiment: as above
[3] = molecular target: MadB, standalone hot dog malonyl-ACP decarboxylase of Shewanella oneidensis (S. oneidensis); experiment: SEC; gel filtration chromatography of the purified recombinant protein
[4] = molecular target: MadB, standalone hot dog malonyl-ACP decarboxylase of Shewanella oneidensis (S. oneidensis); experiment: AUC; sedimentation analysis (methods: sedimentation velocity, 50,000 rpm, interference optics), 0.02 M Tris pH 7.5, 0.5 M NaCl, 20 °C, no reducing agents
[5] = molecular target: MadB(S54A) (S. oneidensis); experiment: not stated; dimeric structures of the MadB catalytic loop mutants, data in Table S3
[6] = molecular target: MadB(D79A) (S. oneidensis); experiment: as above
[7] = molecular target: MadB(N45A) (S. oneidensis); experiment: as above
[8] = molecular target: MadB(N43A) (S. oneidensis); experiment: as above

stoichiometry N [1]: 2
Substance: MadB(H47A) (enzyme)

stoichiometry N [5]: 2
Substance: MadB(S54A) (enzyme)

stoichiometry N [6]: 2
Substance: MadB(D79A) (enzyme)

Continued, substance first:

Substance: MadB(T49A) (enzyme)
stoichiometry N [2]: 2

Substance: MadB, standalone hot dog malonyl-ACP decarboxylase of Shewanella oneidensis (enzyme)
stoichiometry N [3]: 2
stoichiometry N [4]: 2

Substance: MadB(N45A) (enzyme)
stoichiometry N [7]: 2

Substance: MadB(N43A) (enzyme)
stoichiometry N [8]: 2
